Measurements: patent US20230322950A1 (Hoffmann-La Roche, published 2023)
Where two headings read alike, the source gives them in different places. Blank lines part the entries; values can stand above or below the binder they belong to.

Key:
[1] = target: T1, VL1VH3-CD8ATD-CD137CSD-CD3zSSD fusion; assay: Jurkat NFAT luciferase reporter assay with CD20-positive WSUDLCL2 target cells (5:1); no reporter activation, which the filing uses to exclude unspecific binding
T1 construct: Chimeric antigen receptor with the scFv in VL-VH order, expressed on Jurkat NFAT reporter cells; also called VL1VH3 P329G-CAR
T1 sequence (chain, as listed by the source): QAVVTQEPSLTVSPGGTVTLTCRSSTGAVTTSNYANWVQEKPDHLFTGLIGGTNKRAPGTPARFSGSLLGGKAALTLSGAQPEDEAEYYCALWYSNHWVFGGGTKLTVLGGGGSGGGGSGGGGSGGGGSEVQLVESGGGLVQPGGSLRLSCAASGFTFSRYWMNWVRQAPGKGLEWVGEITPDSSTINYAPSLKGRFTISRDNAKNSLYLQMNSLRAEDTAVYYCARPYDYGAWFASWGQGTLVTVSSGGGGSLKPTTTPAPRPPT
Method: (§1) Binding of the CAR to an immobilized adapter molecule (e.g. a tumor antigen bound adapter molecule) leads to CAR crosslinking resulting in T cell activation and in the expression of luciferase. […] The 384 well plate was centrifuged for 1 min at 300g and RT and incubated at 37° C. and 5% CO₂ in a humidity atmosphere. After 7h incubation 20% of the final volume of ONE-Glo™ Luciferase Assay (E6120, Promega) was added, and plates were centrifuged for 1 min at 350×g. Afterwards, the relative luminescence units (RLU) per s/well were measured immediately using a Tecan microplate reader. Concentration-response curves were fitted and EC₅₀ values were calculated using GraphPadPrism version 7. As p value the New England Journal of Medicine style was used as listed in GraphPadPrism 7. Meaning*=P≤0,033; **=P≤0,002; ***=P≤0.001.

[2] = target: T2, VH1VL1-CD8ATD-CD137CSD-CD3zSSD fusion; assay: as above
T2 construct: Chimeric antigen receptor expressed on Jurkat NFAT reporter cells; also called VH1VL1 P329G-CAR
T2 sequence (chain, as listed by the source): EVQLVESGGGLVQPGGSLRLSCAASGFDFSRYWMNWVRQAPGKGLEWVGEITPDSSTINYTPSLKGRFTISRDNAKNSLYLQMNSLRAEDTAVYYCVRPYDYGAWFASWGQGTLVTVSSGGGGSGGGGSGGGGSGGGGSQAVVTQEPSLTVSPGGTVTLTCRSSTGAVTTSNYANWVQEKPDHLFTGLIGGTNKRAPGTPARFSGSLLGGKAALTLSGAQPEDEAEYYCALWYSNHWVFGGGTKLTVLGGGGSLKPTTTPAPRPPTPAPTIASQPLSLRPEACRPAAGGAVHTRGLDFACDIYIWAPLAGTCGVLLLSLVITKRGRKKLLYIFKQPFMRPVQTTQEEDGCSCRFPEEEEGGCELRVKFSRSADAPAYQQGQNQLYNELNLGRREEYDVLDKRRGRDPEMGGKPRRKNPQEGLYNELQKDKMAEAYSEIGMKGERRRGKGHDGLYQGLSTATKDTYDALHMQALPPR
Method: as §1

[3] = target: T3, VH2VL1-CD8ATD-CD137CSD-CD3zSSD fusion; assay: as above
T3 construct: Chimeric antigen receptor expressed on Jurkat NFAT reporter cells; also called VH2VL1 P329G-CAR
T3 sequence (chain, as listed by the source): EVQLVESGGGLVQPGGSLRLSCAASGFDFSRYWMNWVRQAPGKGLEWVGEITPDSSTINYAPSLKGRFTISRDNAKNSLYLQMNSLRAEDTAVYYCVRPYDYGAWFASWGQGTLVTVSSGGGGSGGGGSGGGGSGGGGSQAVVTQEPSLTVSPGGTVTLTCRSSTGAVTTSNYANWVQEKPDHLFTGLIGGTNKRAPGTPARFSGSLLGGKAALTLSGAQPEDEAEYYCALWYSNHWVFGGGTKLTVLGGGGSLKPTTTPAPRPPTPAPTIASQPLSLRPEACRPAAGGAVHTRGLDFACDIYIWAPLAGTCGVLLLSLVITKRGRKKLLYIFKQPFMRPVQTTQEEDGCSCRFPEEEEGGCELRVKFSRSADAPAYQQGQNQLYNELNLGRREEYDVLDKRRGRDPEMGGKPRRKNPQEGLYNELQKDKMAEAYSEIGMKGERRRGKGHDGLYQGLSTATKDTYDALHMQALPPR
Method: as §1

[4] = target: T4, VH3VL1-CD8ATD-CD137CSD-CD3zSSD fusion; assay: as above
T4 construct: also called VH3VL1 P329G-CAR
T4 sequence (chain, as listed by the source): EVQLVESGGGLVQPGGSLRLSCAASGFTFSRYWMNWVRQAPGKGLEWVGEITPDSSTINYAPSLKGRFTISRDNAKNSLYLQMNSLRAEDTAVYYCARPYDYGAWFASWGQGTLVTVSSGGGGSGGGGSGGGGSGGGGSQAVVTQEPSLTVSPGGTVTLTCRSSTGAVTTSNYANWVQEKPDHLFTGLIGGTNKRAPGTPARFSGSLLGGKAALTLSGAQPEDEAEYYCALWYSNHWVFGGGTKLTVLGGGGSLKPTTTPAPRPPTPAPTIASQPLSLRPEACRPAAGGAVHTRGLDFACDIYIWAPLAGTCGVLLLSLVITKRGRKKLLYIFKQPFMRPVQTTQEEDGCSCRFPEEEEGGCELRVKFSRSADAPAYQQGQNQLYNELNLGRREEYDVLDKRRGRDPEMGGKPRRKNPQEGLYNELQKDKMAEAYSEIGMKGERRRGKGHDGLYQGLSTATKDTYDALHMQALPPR
Method: as §1

[5] = target: T1, VL1VH3-CD8ATD-CD137CSD-CD3zSSD fusion; assay: cell-based or functional assay
[6] = target: T2, VH1VL1-CD8ATD-CD137CSD-CD3zSSD fusion; assay: cell-based or functional assay
[7] = target: T3, VH2VL1-CD8ATD-CD137CSD-CD3zSSD fusion; assay: cell-based or functional assay
[8] = target: T4, VH3VL1-CD8ATD-CD137CSD-CD3zSSD fusion; assay: cell-based or functional assay
[9] = target: T1, VL1VH3-CD8ATD-CD137CSD-CD3zSSD fusion; assay: cell-based or functional assay; remark: listed apart in the source
[10] = target: T2, VH1VL1-CD8ATD-CD137CSD-CD3zSSD fusion; assay: cell-based or functional assay; remark: listed apart in the source
[11] = target: T3, VH2VL1-CD8ATD-CD137CSD-CD3zSSD fusion; assay: cell-based or functional assay; remark: listed apart in the source
[12] = target: T4, VH3VL1-CD8ATD-CD137CSD-CD3zSSD fusion; assay: cell-based or functional assay; remark: listed apart in the source
[13] = target: T1, VL1VH3-CD8ATD-CD137CSD-CD3zSSD fusion; assay: Jurkat NFAT luciferase reporter assay with CD20-positive WSUDLCL2 target cells (5:1); no reporter activation, which the filing uses to exclude unspecific binding; remark: listed apart in the source
Method: as §1

[14] = target: T2, VH1VL1-CD8ATD-CD137CSD-CD3zSSD fusion; assay: as above; remark: listed apart in the source
Method: as §1

[15] = target: T3, VH2VL1-CD8ATD-CD137CSD-CD3zSSD fusion; assay: as above; remark: listed apart in the source
Method: as §1

[16] = target: T4, VH3VL1-CD8ATD-CD137CSD-CD3zSSD fusion; assay: as above; remark: listed apart in the source
Method: as §1

binding result [1]: no binding (tested: 67 nM) | binding result [2]: no binding (tested: 67 nM) | binding result [3]: no binding (tested: 67 nM) | binding result [4]: no binding (tested: 67 nM) | EC50 printed in the drawn table (row 'VL1 x VH 3') for the Jurkat NFAT reporter assay with WSUDLCL2 cells; it is a fit of a flat curve at background and no activation is seen [5]: ~0.0783 nM | EC50 printed in the drawn table (row 'VH1 x VL1') for the Jurkat NFAT reporter assay with WSUDLCL2 cells; it is a fit of a flat curve at background and no activation is seen [6]: ~2.19 pM | EC50 printed in the drawn table (row 'VH2 x VL1') for the Jurkat NFAT reporter assay with WSUDLCL2 cells; it is a fit of a flat curve at background and no activation is seen [7]: 0.000119 pM | EC50 printed in the drawn table (row 'VH3 x VL1') for the Jurkat NFAT reporter assay with WSUDLCL2 cells; it is a fit of a flat curve at background and no activation is seen [8]: ~0.085 nM
B1: anti-CD20 (GA101) wild type IgG1 (antibody)
heavy: not shown
light: DIVMTQTPLSLPVTPGEPASISCRSSKSLLHSNGITYLYWYLQKPGQSPQLLIYQMSNLVSGVPDRFSGSGSGTDFTLKISRVEAEDVGVYYCAQNLELPYTFGGGTKVEIKRTVAAPSVFIFPPSDEQLKSGTASVVCLLNNFYPREAKVQWKVDNALQSGNSQESVTEQDSKDSTYSLSSTLTLSKADYEKHKVYACEVTHQGLSSPVTKSFNRGEC
notes: also called GA101 Fc wildtyp

EC50 printed in the drawn table (row 'VL1 x VH 3') for the Jurkat NFAT reporter assay with WSUDLCL2 cells; it is a fit of a flat curve at background and no activation is seen [9]: ~0.000234 pM | EC50 printed in the drawn table (row 'VH1 x VL1') for the Jurkat NFAT reporter assay with WSUDLCL2 cells; it is a fit of a flat curve at background and no activation is seen [10]: ~0.0485 pM | EC50 printed in the drawn table (row 'VH2 x VL1') for the Jurkat NFAT reporter assay with WSUDLCL2 cells; it is a fit of a flat curve at background and no activation is seen [11]: ~0 nM | EC50 printed in the drawn table (row 'VH3 x VL1') for the Jurkat NFAT reporter assay with WSUDLCL2 cells; it is a fit of a flat curve at background and no activation is seen [12]: ~1.61e+07 mM | binding result [13]: no binding (tested: 67 nM) | binding result [14]: no binding (tested: 67 nM) | binding result [15]: no binding (tested: 67 nM) | binding result [16]: no binding (tested: 67 nM)
B2: anti-CD20 (GA101) LALA IgG1 (antibody)
heavy: not shown
light: B1 light
